# According to publication PMC9573943, “Contribution of the 12–17 hydrophobic region of islet amyloid polypeptide in self-assembly and cytotoxicity” (Frontiers in Molecular Biosciences, 2022):
# Bridge positions count the residues as written; N and C are the ends. Ends that are not written are not given here.
# Legend:
# [1] = Peptide self-assembly under fully quiescent conditions (CD, ThT and ANS fluorescence, TEM, AFM); assay type: physicochemical; details: 50 μM peptide; for Assemblies observed by TEM after 48 h incubation: negative stain TEM; for Overall effect of the substitution on amyloid formation, in words: CD, ThT, ANS, TEM, compared with unmodified IAPP; for Incubation time at which the random coil to β-sheet conformational transition is seen (far-UV CD) / Secondary conformation / conformational transition over incubation (far-UV CD), in words: fully quiescent; for Incubation time at which the random coil to β-sheet conformational transition is seen (far-UV CD): microtubes, diluted to 25 μM for CD; for ThT fluorescence of incubated peptide, in words: diluted to 25 μM with 40 μM ThT; for Secondary conformation / conformational transition over incubation (far-UV CD), in words: up to 7 days
# Experimental: Solutions were prepared by dissolving the peptide at a concentration of 50 μM in 20 mM Tris-HCl, pH 7.4, and were incubated at room temperature without agitation in 1.5 ml Eppendorf microtubes. For IAPP12-17, the lyophilized peptide was dissolved in 20 mM acetate pH 6.5 in the presence of 3% DMSO, or HFIP, at a final concentration of 500 μM and the peptide solution was incubated at 37 °C under constant rotational agitation.
# At the indicating time of incubation, peptide solutions were diluted to 25 μM in presence of 40 μM ThT, or 25 μM 8-anilino-1-naphthalenesulfonic acid (ANS). Fluorescence was measured in 10-mm pathlength microcells using a PTI QuantaMaster spectrofluorometer. For ThT, excitation was set at 440 nm, and the emission spectrum from 450 to 550 nm was recorded. For ANS, the excitation was set at 355 nm, and the emission scan was recorded from 385 to 585 nm.
# After incubation, peptide solutions were diluted in water to 25 μM and incorporated into a 2-mm path length quartz cell. For IAPP12-17, the solution was diluted to 150 μM. Far-UV CD spectra were recorded from 190 to 260 nm using a Jasco J-815 CD spectropolarimeter at 25°C. The wavelength step was set at 0.5 nm with an average time of 10 s per scan at each wavelength. Spectra were background-subtracted with buffer solution. Raw data were converted to mean residue ellipticity (MRE): MRE=Mean residue weight (g/mol)X CD signal (deg)/10 X pathlength (cm) X peptide concentration (g/mL)
# After incubation, peptide solutions were diluted to 10 μM, or 100 μΜ for IAPP12-17, before being applied on glow-discharged carbon films on 300-mesh copper grids. Samples were adsorbed and negatively stained with 1.5% uranyl formate for 45 s. Images were recorded using a FEI Tecnai G2 Spirit Twin microscope operating at 120 kV and equipped with a Gatan Ultrascan scan 4,000 4k × 4k CCD camera system.
# After incubation, peptide solutions were diluted in 1% acetic acid to a concentration of 7.5 μΜ. […] Images were recorded using Veeco/Bruker multimode AFM instrument using ScanAsyst-air mode with a silicon tip (2–12 nm tip radius, 0.4 N/m force) on a nitride lever. Images were taken at 0.977 Hz and 512 scan/min.
# [2] = system: INS-1E cells; assay: Cell viability by resazurin reduction; assay type: cell-based, Rat; details: freshly dissolved peptide up to 50 μM, 24 h, at least five assays
# Experimental: (§1) Rat INS-1E cells were cultured in treated black-wall clear-bottom 96-well plates at a density of 25,000 cell/well in RPMI-1640 medium supplemented with 10% FBS, 2 mM L-glutamine, 100 U/ml penicillin, 100 μg/ml streptomycin, 10 mM HEPES, 1 mM sodium pyruvate and 50 μM β-mercaptoethanol. After 48 h of incubation at 37°C in 5% CO2, cells were treated with 50 μL of peptide freshly dissolved in 20 mM Tris-HCl, pH 7.4. […] Cell viability (%) was calculated from the ratio of the fluorescence of the treated cells to the vehicle-treated cells. Data of at least five assays performed with different peptide lots were averaged and expressed as the mean ± S.D. Statistical analysis was performed using Student’s t test, and statistically significant difference was established at (*) p < 0.05; (**) p < 0.005; (***) p < 0.0005. For Live/Dead viability assay, cells were plated in 12-well plates at density of 250,000 cell/well for 48 h before treatment with 25 μM peptide.
# [3] = Lipid membrane leakage (calcein-loaded LUVs); details: 25 μM peptide, 500 μM phospholipids, LUVs DOPC:DOPG 9:1, 20 mM Tris-HCl, 150 mM NaCl, pH 7.4, read every 10 min over 24 h; IAPP value reached after 10 h; at least four assays
# Experimental: Large unilamellar vesicles (LUVs) were assembled from 1,2-Dioleoyl-sn-glycero-3-phosphocholine (DOPC) and 2-dioleoyl-sn-glycero-3-phospho-(1′-rac-glycerol) (DOPG) at a 9:1 M ratio (DOPC:DOPG). Lipids were solubilized in 100% chloroform, which was then evaporated. […] The lipid mixture was freeze-thawed five times before being extruded through a 100 nm membrane for 20 cycles. Nonencapsulated calcein was removed by gel filtration using a Sephadex G25 fine resin and 20 mM Tris-HCl, 150 mM NaCl, pH 7.4, as elution buffer. Final lipid concentration was determined by a colorimetric assay ([Babych et al., 2021]). Lyophilized peptides were solubilized in 20 mM Tris-HCl, 150 mM NaCl, pH 7.4, at 50 μM prior to dilution into calcein-LUVs, to reach 25 μM peptide and 500 μM phospholipids. Fluorescence was monitored in sealed black-wall, clear-bottom 96-well non-binding surface plates with 100 μL/well. […] 100% leakage (Fmax) was determined with 0.2% Triton X-100 and LUV leakage was reported using:
# Membrane leakage (%) = (F−F baseline)/(F max−F baseline)
# Data of at least four assays with different peptide lots were averaged and expressed as the mean ± S.D. Statistical analysis was performed using Student’s t test, and statistically significant difference was established at (*) p < 0.05; (**) p < 0.005; (***) p < 0.0005.
# [4] = system: INS-1E cells; assay: Live/Dead viability assay (calcein-AM / ethidium homodimer-1, fluorescence microscopy); assay type: cell-based, Rat; details: 25 μM freshly solubilized peptide, 24 h, calcein-AM (green, live) and ethidium homodimer-1 (red, dead)
# Experimental: as §1
# [5] = Kinetics of amyloid formation monitored by ThT fluorescence; assay type: physicochemical; details: 40 μM ThT, 20 mM Tris-HCl pH 7.4, 25°C, no agitation
# Experimental: Aggregation mixtures were prepared by dissolving the lyophilized peptide at a concentration of 50 μM in 20 mM Tris-HCl, pH 7.4. Assays were performed at 25°C without stirring in sealed black-wall clear-bottom 96-well nonbinding surface plates with 100 μL/well. Final peptide concentrations were 12.5 and 25 μM, and thioflavin T (ThT) concentration was fixed at 40 μM. Fluorescence was measured every 10 min (excitation: 440 nm, emission: 485 nm) and data from triplicate wells were averaged, corrected by subtracting the blank control, and plotted as ThT fluorescence vs. time. Data were normalized with maximum ThT fluorescence intensity obtained for unmodified IAPP. Data were fitted to a sigmoidal Boltzmann model: Y=Yo+(Ymax−Yo)/1+e^−(T−T50)/ K where T 50 is the time required to reach half of the maximum fluorescence intensity, k is the apparent first-order constant, and Y max and Y 0 are the maximum and initial ThT fluorescence values. Lag time corresponds to T50 - 2/k. Data of at least six assays performed with different peptide lots were averaged and expressed as the mean ± S.D. Statistical analysis was performed using Student’s t test, and statistically significant difference between IAPP and analogs was established at (*) p < 0.05; (**) p < 0.005; (***) p < 0.0005.
# [6] = 20 mM Tris-HCl pH 7.4, quiescent
# [7] = 20 mM Tris-HCl pH 7.4, room temperature
Substance,"Assemblies observed by TEM after 48 h incubation [1, 6]","Overall effect of the substitution on amyloid formation, in words [1, 6]","Incubation time at which the random coil to β-sheet conformational transition is seen (far-UV CD) [1, 7] [h]","Cytotoxicity compared with unmodified IAPP, in words [2]","ThT fluorescence of incubated peptide, in words [1, 6]","Secondary conformation / conformational transition over incubation (far-UV CD), in words [1, 7]",further results
"A13G: full-length IAPP with Ala13 substituted by Gly (KCNTATCATQRLGNFLVHSSNNFGAILSSTNVGSNTY; disulfide 2-7; ends not checked; UniProt P10997 34-70, looked up, variant A13G)",presence of fibrillar aggregates,accelerates IAPP amyloid self-assembly,≤ 6,higher cytotoxicity compared to unmodified IAPP,–,–,–
"V17A: full-length IAPP with Val17 substituted by Ala (KCNTATCATQRLANFLAHSSNNFGAILSSTNVGSNTY; disulfide 2-7; ends not checked; UniProt P10997 34-70, looked up, variant V17A)",short and poorly defined fibrils,–,–,reduced IAPP toxicity,low ThT and ANS binding properties,delayed the conformational transition,"Maximum membrane leakage (calcein fluorescence, % of that with Triton X-100) [3]: 34%; Cell death in Live/Dead assay, in words [4]: decreased toxicity compared to unmodified IAPP"
"N14P: full-length IAPP with Pro at position Asn14 (KCNTATCATQRLAPFLVHSSNNFGAILSSTNVGSNTY; disulfide 2-7; ends not checked; UniProt P10997 34-70, looked up, variant N14P)",–,–,24,–,–,–,"Assemblies observed by AFM after 24 h incubation ([1]; 20 mM Tris-HCl pH 7.4, room temperature, no agitation, 24 h): dense network of fibrils"
"A13P: full-length IAPP with Ala13 substituted by Pro (KCNTATCATQRLPNFLVHSSNNFGAILSSTNVGSNTY; disulfide 2-7; ends not checked; UniProt P10997 34-70, looked up, variant A13P)",Prototypical fibrils,accelerated amyloid formation,4,increased the cytotoxicity of IAPP at 12.5 and 25 μM,–,–,"Incubation time at which ThT and ANS positive signal arises ([1]; 20 mM Tris-HCl pH 7.4, quiescent, diluted to 25 μM with 40 μM ThT or 25 μM ANS): 6 h"
"F15P: full-length IAPP with Pro at position Phe15 (KCNTATCATQRLANPLVHSSNNFGAILSSTNVGSNTY; disulfide 2-7; ends not checked; UniProt P10997 34-70, looked up, variant F15P)",absence fibrillar aggregates,–,–,–,–,–,"Assemblies observed by AFM after 96 h incubation ([1]; 20 mM Tris-HCl pH 7.4, room temperature, no agitation, 96 h): typical fibrils"
"L12A: full-length IAPP with Leu→Ala substitution at position 12 (KCNTATCATQRAANFLVHSSNNFGAILSSTNVGSNTY; disulfide 2-7; ends not checked; UniProt P10997 34-70, looked up, variant L12A)",long and twisted fibrils,–,–,reduced IAPP toxicity,absence of a ThT-signal,remained mainly under a random coil structure after a week of incubation,"Increase of ThT fluorescence signal ([5]; 12.5 μM peptide): no increase of ThT fluorescence signal could be detected; Lag time of amyloid formation ([5]; 25 μM peptide, nonbinding surface 96-well plate, read every 10 min, lag time = T50 - 2/k, mean ± S.D. of at least six assays): 13.5 ± 4.1 h; ANS fluorescence of incubated peptide, in words ([1]; 20 mM Tris-HCl pH 7.4, quiescent, diluted to 25 μM with 25 μM ANS): low ANS fluorescence; Cell death in Live/Dead assay, in words [4]: decreased toxicity compared to unmodified IAPP"
"L16P: full-length IAPP with Leu16 substituted by Pro (KCNTATCATQRLANFPVHSSNNFGAILSSTNVGSNTY; disulfide 2-7; ends not checked; UniProt P10997 34-70, looked up, variant L16P)",–,completely inhibited amyloid formation,–,less cytotoxic than unmodified IAPP,absence of a ThT and ANS signal,random coil conformation observed after 7 days incubation,–
